Substitutions are numbered along the chain they refer to. Names and notes keep the numbering of the source.
T1: succinyl-L-alanyl-L-alanyl-L-prolyl-L-phenylalanyl-p-nitroanilide
T1 sequence (peptide, N-terminal succinyl; C-terminal p-nitroanilide): AAPF

B1: Bacillus lentus DSM 5483 alkaline protease (BLAP), wild type enzyme (enzyme)
chain: AQSVPWGISRVQAPAAHNRGLTGSGVKVAVLDTGISTHPDLNIRGGASFVPGEPSTQDGNGHGTHVAGTIAALNNSIGVLGVAPSAELYAVKVLGADGRGAISSIAQGLEWAGNNGMHVANLSLGSPSPSATLEQAVNSATSRGVLVVAASGNSGASSISYPARYANAMAVGATDQNNNRASFSQYGAGLDIVAPGVNVQSTYPGSTYASLNGTSMATPHVAGAAALVKQKNPSWSNVQIRNHLKNTATSLGSTNLYGSGLVNAEAATR
B2: BLAP mutant F46 (S3T + V4I + S154E + A188P + V193M + V199I) (enzyme)
chain: B1 chain with S3T, V4I, S154E, A188P, V193M, V199I
B3: BLAP mutant F44 (S3T + V4I + R99A + A188P + V193M + V199I) (enzyme)
chain: B1 chain with S3T, V4I, R99A, A188P, V193M, V199I
B4: BLAP mutant F11 (S3T + R99S + A188P + V193M + V199I) (enzyme)
chain: B1 chain with S3T, R99S, A188P, V193M, V199I
B5: BLAP mutant F43 (S3T + V4I + R99G + A188P + V193M + V199I) (enzyme)
chain: B1 chain with S3T, V4I, R99G, A188P, V193M, V199I
B6: BLAP mutant F47 (S3T + V4I + S154D + A188P + V193M + V199I) (enzyme)
chain: B1 chain with S3T, V4I, S154D, A188P, V193M, V199I
B7: BLAP mutant F45 (S3T + V4I + R99S + A188P + V193M + V199I) (enzyme)
chain: B1 chain with S3T, V4I, R99S, A188P, V193M, V199I
B8: BLAP variant M131 (S3T + V4I + A188P + V193M + V199I) (enzyme)
chain: B1 chain with S3T, V4I, A188P, V193M, V199I
B9: BLAP mutant F54 (S3T + V4I + R99G + A188P + V193M + V199I + L211D) (enzyme)
chain: B1 chain with S3T, V4I, R99G, A188P, V193M, V199I, L211D
B10: BLAP mutant F49 (S3T + V4I + A188P + V193M + V199I + L211D) (enzyme)
chain: B1 chain with S3T, V4I, A188P, V193M, V199I, L211D
B11: BLAP mutant F55 (S3T + V4I + S154E + A188P + V193M + V199I + L211D) (enzyme)
chain: B1 chain with S3T, V4I, S154E, A188P, V193M, V199I, L211D

biological target: casein (prepared according to Hammarsten; Merck, Darmstadt, #2242)

Specific Activity (HPE · mg^-1) | Binder
4000 | B1
3180 | B2
3750 | B3
3760 | B4
3780 | B5
3610 | B6
3710 | B7
3670 | B8
2510 | B9
4610 | B10
3200 | B11

biological target: T1, succinyl-L-alanyl-L-alanyl-L-prolyl-L-phenylalanyl-p-nitroanilide

kcat · Km^-1 [M⁻¹ s⁻¹] | Binder
297000 | B1
179000 | B2
103000 | B3
92000 | B4
99000 | B5
124000 | B6
68000 | B7
156000 | B8
1300 | B9
11000 | B10
2600 | B11
